How the values were obtained:
Test in all cases: cell-based or functional assay
[1] = target: HIV-1 92RW008 Env (HIV-1)
[2] = target: HIV-1 92TH021 Env (HIV-1)
[3] = target: HIV-1 92UG031 Env (HIV-1)
[4] = target: HIV-1 92UG037 Env (HIV-1)
[5] = target: HIV-1 92WR009 Env (HIV-1)
[6] = target: HIV-1 92WR020 Env (HIV-1)
[7] = target: HIV-1 92WR021 Env (HIV-1)
[8] = target: HIV-1 92WR024 Env (HIV-1)
[9] = target: HIV-1 92WR026 Env (HIV-1)
[10] = target: HIV-1 93UG077 Env (HIV-1)
[11] = target: HIV-1 93WR029 Env (HIV-1)
[12] = target: HIV-1 94KE105 Env (HIV-1)
[13] = target: HIV-1 94UG103 Env (HIV-1)
HIV-1 CMU02 Env (HIV-1) = target: HIV-1 CMU02 Env (HIV-1)
[14] = target: HIV-1 Env of isolate MG RM-C-019 (subtype C) (HIV-1)
[15] = target: HIV-1 Env of isolate MG RM-C-020 (subtype C) (HIV-1)
[16] = target: HIV-1 Env of isolate MG RM-C-022 (subtype C) (HIV-1)
[17] = target: HIV-1 Env of isolate MG RM-C-023 (subtype C) (HIV-1)
[18] = target: HIV-1 Env of isolate MG RM-C-024 (subtype C) (HIV-1)
[19] = target: HIV-1 Env of isolate MG RM-C-025 (subtype C) (HIV-1)
[20] = target: HIV-1 Env of isolate MG RM-C-026 (subtype C) (HIV-1)
[21] = target: HIV-1 Env of isolate MG RM-C-027 (subtype C) (HIV-1)
[22] = target: HIV-1 Env of isolate MG RM-C-028 (subtype C) (HIV-1)
[23] = target: HIV-1 MGRM-A-001 Env (HIV-1)
[24] = target: HIV-1 MGRM-A-002 Env (HIV-1)
[25] = target: HIV-1 MGRM-A-003 Env (HIV-1)
[26] = target: HIV-1 MGRM-A-004 Env (HIV-1)
[27] = target: HIV-1 MGRM-A-005 Env (HIV-1)
[28] = target: HIV-1 MGRM-A-006 Env (HIV-1)
[29] = target: HIV-1 MGRM-A-007 Env (HIV-1)
[30] = target: HIV-1 MGRM-A-008 Env (HIV-1)
[31] = target: HIV-1 MGRM-A-009 Env (HIV-1)
[32] = target: HIV-1 MGRM-A-010 Env (HIV-1)
[33] = target: HIV-1 MGRM-A-011 Env (HIV-1)
[34] = target: HIV-1 MGRM-A-012 Env (HIV-1)
[35] = target: HIV-1 MGRM-A-013 Env (HIV-1)
[36] = target: HIV-1 MGRM-A-014 Env (HIV-1)
[37] = target: HIV-1 MGRM-AE-001 Env (HIV-1)
[38] = target: HIV-1 MGRM-AE-002 Env (HIV-1)
[39] = target: HIV-1 MGRM-AE-003 Env (HIV-1)
[40] = target: HIV-1 MGRM-AE-004 Env (HIV-1)
[41] = target: HIV-1 MGRM-AE-005 Env (HIV-1)
[42] = target: HIV-1 MGRM-AE-006 Env (HIV-1)
[43] = target: HIV-1 MGRM-AE-007 Env (HIV-1)
[44] = target: HIV-1 MGRM-AE-008 Env (HIV-1)
[45] = target: HIV-1 MGRM-AG-001 Env (HIV-1)
[46] = target: HIV-1 MGRM-AG-002 Env (HIV-1)
[47] = target: HIV-1 MGRM-AG-003 Env (HIV-1)
[48] = target: HIV-1 MGRM-AG-005 Env (HIV-1)
[49] = target: HIV-1 MGRM-AG-006 Env (HIV-1)
[50] = target: HIV-1 MGRM-AG-008 Env (HIV-1)
[51] = target: HIV-1 MGRM-AG-009 Env (HIV-1)
[52] = target: HIV-1 MGRM-AG-011 Env (HIV-1)
[53] = target: HIV-1 MGRM-AG-012 Env (HIV-1)
[54] = target: HIV-1 MGRM-AG-013 Env (HIV-1)
HIV-1 VLGCA1 Env (HIV-1) = target: HIV-1 VLGCA1 Env (HIV-1)

Q: How did the IC50 [1] turn out when 5114_A19 (PGT-128) (antibody) was run?
A: 0.003 mg/L

Q: What about the IC50 [2] of the same substance?
A: 0.01 mg/L

Q: What about the IC50 [3] of the same substance?
A: > 50 mg/L

Q: What about the IC50 [4] of the same substance?
A: 0.006 mg/L

Q: What about the IC50 [5] of the same substance?
A: 0.812 mg/L

Q: What about the IC50 [6] of the same substance?
A: 0.005 mg/L

Q: What about the IC50 [7] of the same substance?
A: 0.005 mg/L

Q: What about the IC50 [8] of the same substance?
A: > 50 mg/L

Q: And the IC50 [9]?
A: 0.01 mg/L

Q: And the IC50 [10]?
A: 0.014 mg/L

Q: And the IC50 [11]?
A: > 50 mg/L

Q: And the IC50 [12]?
A: 0.007 mg/L

Q: What about the IC50 [13] of the same substance?
A: 0.011 mg/L

Q: And the IC50 (HIV-1 CMU02 Env (HIV-1))?
A: > 50 mg/L

Q: What about the IC50 [14] of the same substance?
A: 0.01 mg/L

Q: What about the IC50 [15] of the same substance?
A: 5.85 mg/L

Q: And the IC50 [16]?
A: 0.042 mg/L

Q: And the IC50 [17]?
A: 0.026 mg/L

Q: What about the IC50 [18] of the same substance?
A: > 50 mg/L

Q: What about the IC50 [19] of the same substance?
A: 10.5 mg/L

Q: What about the IC50 [20] of the same substance?
A: 0.007 mg/L

Q: And the IC50 [21]?
A: 0.081 mg/L

Q: What about the IC50 [22] of the same substance?
A: 14.4 mg/L

Q: What about the IC50 [23] of the same substance?
A: > 50 mg/L

Q: And the IC50 [24]?
A: 0.149 mg/L

Q: What about the IC50 [25] of the same substance?
A: > 50 mg/L

Q: What about the IC50 [26] of the same substance?
A: > 50 mg/L

Q: And the IC50 [27]?
A: > 50 mg/L

Q: What about the IC50 [28] of the same substance?
A: > 50 mg/L

Q: And the IC50 [29]?
A: > 50 mg/L

Q: What about the IC50 [30] of the same substance?
A: > 50 mg/L

Q: And the IC50 [31]?
A: 0.005 mg/L

Q: And the IC50 [32]?
A: 0.005 mg/L

Q: And the IC50 [33]?
A: > 50 mg/L

Q: What about the IC50 [34] of the same substance?
A: 0.025 mg/L

Q: And the IC50 [35]?
A: 0.008 mg/L

Q: What about the IC50 [36] of the same substance?
A: 0.007 mg/L

Q: And the IC50 [37]?
A: 0.069 mg/L

Q: What about the IC50 [38] of the same substance?
A: 0.522 mg/L

Q: And the IC50 [39]?
A: 0.18 mg/L

Q: What about the IC50 [40] of the same substance?
A: > 50 mg/L

Q: And the IC50 [41]?
A: 0.032 mg/L

Q: And the IC50 [42]?
A: 0.044 mg/L

Q: What about the IC50 [43] of the same substance?
A: > 50 mg/L

Q: And the IC50 [44]?
A: > 50 mg/L

Q: What about the IC50 [45] of the same substance?
A: 4.73 mg/L

Q: What about the IC50 [46] of the same substance?
A: 4.99 mg/L

Q: What about the IC50 [47] of the same substance?
A: 34.8 mg/L

Q: What about the IC50 [48] of the same substance?
A: 0.037 mg/L

Q: And the IC50 [49]?
A: 0.009 mg/L

Q: What about the IC50 [50] of the same substance?
A: 0.668 mg/L

Q: And the IC50 [51]?
A: 0.021 mg/L

Q: What about the IC50 [52] of the same substance?
A: 3.93 mg/L

Q: And the IC50 [53]?
A: > 50 mg/L

Q: What about the IC50 [54] of the same substance?
A: 0.004 mg/L

Q: And the IC50 (HIV-1 VLGCA1 Env (HIV-1))?
A: 0.838 mg/L

Q: For 5136_H01 (PGT-131) (antibody), which IC50 [1] is on record?
A: 1.01 mg/L

Q: And the IC50 [2]?
A: 0.014 mg/L

Q: What about the IC50 [3] of the same substance?
A: > 50 mg/L

Q: What about the IC50 [4] of the same substance?
A: 0.048 mg/L

Q: And the IC50 [5]?
A: 3.12 mg/L

Q: What about the IC50 [6] of the same substance?
A: 0.168 mg/L

Q: And the IC50 [7]?
A: 0.012 mg/L

Q: What about the IC50 [8] of the same substance?
A: > 50 mg/L

Q: What about the IC50 [9] of the same substance?
A: 0.041 mg/L

Q: What about the IC50 [10] of the same substance?
A: > 50 mg/L

Q: What about the IC50 [11] of the same substance?
A: > 50 mg/L

Q: And the IC50 [12]?
A: 0.013 mg/L

Q: What about the IC50 [13] of the same substance?
A: 1.1 mg/L

Q: And the IC50 (HIV-1 CMU02 Env (HIV-1))?
A: > 50 mg/L

Q: And the IC50 [14]?
A: 0.021 mg/L

Q: What about the IC50 [15] of the same substance?
A: > 50 mg/L

Q: What about the IC50 [16] of the same substance?
A: 0.78 mg/L

Q: And the IC50 [17]?
A: 0.143 mg/L

Q: What about the IC50 [18] of the same substance?
A: > 50 mg/L

Q: What about the IC50 [19] of the same substance?
A: > 50 mg/L

Q: What about the IC50 [20] of the same substance?
A: 1.67 mg/L

Q: And the IC50 [21]?
A: 0.065 mg/L

Q: What about the IC50 [22] of the same substance?
A: > 50 mg/L

Q: What about the IC50 [23] of the same substance?
A: > 50 mg/L

Q: What about the IC50 [24] of the same substance?
A: > 50 mg/L

Q: And the IC50 [25]?
A: > 50 mg/L

Q: And the IC50 [26]?
A: > 50 mg/L

Q: What about the IC50 [27] of the same substance?
A: > 50 mg/L

Q: What about the IC50 [28] of the same substance?
A: > 50 mg/L

Q: And the IC50 [29]?
A: > 50 mg/L

Q: And the IC50 [30]?
A: > 50 mg/L

Q: What about the IC50 [31] of the same substance?
A: 0.035 mg/L

Q: What about the IC50 [32] of the same substance?
A: 0.01 mg/L

Q: What about the IC50 [33] of the same substance?
A: > 50 mg/L

Q: What about the IC50 [34] of the same substance?
A: > 50 mg/L

Q: And the IC50 [35]?
A: > 50 mg/L

Q: What about the IC50 [36] of the same substance?
A: 15.4 mg/L

Q: What about the IC50 [37] of the same substance?
A: 4.8 mg/L

Q: And the IC50 [38]?
A: > 50 mg/L

Q: What about the IC50 [39] of the same substance?
A: 1.41 mg/L

Q: And the IC50 [40]?
A: > 50 mg/L

Q: And the IC50 [41]?
A: 0.017 mg/L

Q: And the IC50 [42]?
A: 0.026 mg/L

Q: And the IC50 [43]?
A: 0.026 mg/L

Q: What about the IC50 [44] of the same substance?
A: > 50 mg/L

Q: And the IC50 [45]?
A: > 50 mg/L

Q: What about the IC50 [46] of the same substance?
A: > 50 mg/L

Q: And the IC50 [47]?
A: 2.92 mg/L

Q: And the IC50 [48]?
A: 1.04 mg/L

Q: And the IC50 [49]?
A: 0.019 mg/L

Q: What about the IC50 [50] of the same substance?
A: > 50 mg/L

Q: And the IC50 [51]?
A: > 50 mg/L

Q: What about the IC50 [52] of the same substance?
A: > 50 mg/L

Q: What about the IC50 [53] of the same substance?
A: > 50 mg/L

Q: And the IC50 [54]?
A: 0.03 mg/L

Q: And the IC50 (HIV-1 VLGCA1 Env (HIV-1))?
A: > 50 mg/L
